Test results from paper PMC9896449.

What was measured:
[1] = target: ShAb01H02K (knob-in-hole heterodimer of ShAb01-Fc and ShAb02-Fc) (nurse shark (Ginglymostoma cirratum)); experiment: BLI
[2] = target: BiShAb0201 (ShAb02 VNAR - (GGGGS)5 - ShAb01 VNAR - human IgG1 Fc) (nurse shark (Ginglymostoma cirratum)); experiment: BLI

Row | Substance | Kd [1] | koff [1] | kon [1] | Kd [2] | koff [2] | kon [2]
1 | SARS-CoV-2 RBD B.1.1.529, Omicron BA.1 (from UniProt P0DTC2 331-527) (domain or fragment) | 24.5 nM | 0.00175 s⁻¹ | 71300 M⁻¹ s⁻¹ | 15.1 nM | 0.00154 s⁻¹ | 102000 M⁻¹ s⁻¹
2 | SARS-CoV-2 RBD B.1.1.529.2, Omicron BA.2 (from UniProt P0DTC2 331-527) (domain or fragment) | 24.1 nM | 0.00186 s⁻¹ | 77000 M⁻¹ s⁻¹ | 33.2 nM | 0.000749 s⁻¹ | 22600 M⁻¹ s⁻¹
3 | SARS-CoV-2 RBD B.1.1.529.2.12.1, Omicron BA.2.12.1 (from UniProt P0DTC2 331-527) (domain or fragment) | 17.4 nM | 0.00171 s⁻¹ | 98500 M⁻¹ s⁻¹ | 46.9 nM | 0.000922 s⁻¹ | 19700 M⁻¹ s⁻¹
4 | SARS-CoV-2 RBD Omicron BA.4/5 (from UniProt P0DTC2 331-527) (domain or fragment) | 5.6 nM | 0.000692 s⁻¹ | 123000 M⁻¹ s⁻¹ | 14.9 nM | 0.000767 s⁻¹ | 51500 M⁻¹ s⁻¹
